Test results reported in patent publication US5679770A, “Polypeptide, DNA fragment encoding the same, drug composition containing the same and process for producing the same” (Mochida Pharmaceutical Co., Ltd., priority 1991, dated 1997).
Residue numbers refer to the chain shown, from its start. Names may count otherwise.

Tests used:
[1] = biological target: T1, human FXa (Homo sapiens, UniProt P00742); test: FXa-inhibiting activity (synthetic substrate S-2222); assay type: biochemical; settings: concentration expressed as bovine trypsin-inhibiting activity; for FXa-inhibiting activity, times higher than that of polypeptide AN68: relative to control AN68; for FXa-inhibiting activity, times higher than that of polypeptide TN70: relative to control TN70
T1 construct: purchased American Diagnostica Inc
T1 sequence (P00742 235-488 limits assumed): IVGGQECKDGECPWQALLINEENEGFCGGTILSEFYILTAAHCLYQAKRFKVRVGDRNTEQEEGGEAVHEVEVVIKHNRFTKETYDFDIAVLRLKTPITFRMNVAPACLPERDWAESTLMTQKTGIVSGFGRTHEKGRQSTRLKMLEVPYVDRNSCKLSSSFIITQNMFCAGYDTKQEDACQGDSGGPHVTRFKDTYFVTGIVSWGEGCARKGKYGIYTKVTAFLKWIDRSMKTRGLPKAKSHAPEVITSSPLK
T1 sequence (P00742 41-179 partner limits assumed): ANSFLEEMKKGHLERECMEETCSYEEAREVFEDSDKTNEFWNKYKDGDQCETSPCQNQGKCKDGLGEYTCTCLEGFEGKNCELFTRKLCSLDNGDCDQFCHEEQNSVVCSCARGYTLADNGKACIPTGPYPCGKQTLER
Procedure: The purified polypeptide of the present invention was dissolved in 100 μl of distilled water. Polypeptide concentration of this solution was determined based on its bovine trypsin-inhibiting activity measured in accordance with the above procedure (1) using the aforementioned UTI as a standard. The thus prepared solution was then diluted to various concentration levels with 0.1% BSA/150 mM NaCl/5 mM CaCl2 /50 mM Tris-HCl buffer (pH 8.3) for use in the activity measurement. Separately from this, a polypeptide TN70 (cf. Japanese Patent Application No. 3-325220) and polypeptide AN68 were purified respectively in accordance with the procedure of Example 2(4) from a culture supernatant of E. coli JE5505(pM552) (deposit No., FERM BP-3561) and E. coli JE5505(pM594) obtained by transforming E. coli JE5505 with the aforementioned plasmid pM594 obtained in Example 4. The thus purified polypeptide TN70 and AN68 were diluted to various concentration levels to be used as control solutions.
Using a synthetic compound S-2222 (Daiichi Pure Chemicals Co., Ltd.) as a substrate, FXa-inhibiting activities in the thus prepared test sample solution and control solution were measured in accordance with the method of Ohno et al. (Ohno H. et al., Thromb. Res., vol.19, pp.579-588, 1980) as follows. First, human FXa (American Diagnostica Inc.) was dissolved in distilled water to a final concentration of 10 PEU/ml and the solution was further diluted with the aforementioned 0.1% BSA/150 mM NaCl/5 mM CaCl2 /50 mM Tris-HCl buffer (pH 8.3) to prepare 0.1 PEU/ml of FXa solution. Separately from this, a 4 mM solution of S-2222 was prepared by dissolving it in distilled water and the solution was further diluted with the 0.1% BSA/150 mM NaCl/5 mM CaCl2 /50 mM Tris-HCl buffer (pH 8.3) to obtain a 2 mM solution of S-2222.
Next, 25 μl of the test sample or control solution was mixed with 100 μl of the 0.1% BSA/150 mM NaCl/5 mM CaCl2 /50 mM Tris-HCl buffer (pH 8.3) and 25 μl of the FXa solution. After incubating statically at 37° C. for 10 minutes, 100 μl of the S-2222 solution was added to start the reaction. The reaction was carried out at 37° C. for 30 minutes and then stopped by adding 50 μl of 50% acetic acid solution to the reaction mixture. Thereafter, absorbance at a wavelength of 405 nm was measured using a spectrophotometer. In this instance, in order to eliminate absorbancy of various contents in the reaction mixture other than the reaction product, a blank solution was prepared by mixing 25 μl of the FXa solution with 50 μl of 50% acetic acid and then with 25 μl of each test sample or the control solution, 100 μl of the 0.1% BSA/150 mM NaCl/5 mM CaCl2 /50 mM Tris-HCl buffer (pH 8.3) and with 100 μl of the S-2222 solution.
The results are shown in FIG. 45 to FIG. 53 and FIG. 66. In these figures, polypeptide concentration in the reaction solution was expressed as its bovine trypsin-inhibiting activity. Also, residual human FXa activity was expressed by percentage based on the absorbance of a control reaction mixture in which 25 μl of the 0.1% BSA/150 mM NaCl/5 mM CaCl2 /50 mM Tris-HCl buffer (pH 8.3) was used instead of the test sample.

[2] = biological target: T2, Bovine trypsin (Bos taurus, UniProt P00760); test: Bovine trypsin-inhibiting activity (synthetic substrate S-2444); assay type: biochemical; settings: purified polypeptide, serially diluted
T2 construct: purchased Sigma Chemical Co. Type XIII
T2 sequence (P00760 24-246): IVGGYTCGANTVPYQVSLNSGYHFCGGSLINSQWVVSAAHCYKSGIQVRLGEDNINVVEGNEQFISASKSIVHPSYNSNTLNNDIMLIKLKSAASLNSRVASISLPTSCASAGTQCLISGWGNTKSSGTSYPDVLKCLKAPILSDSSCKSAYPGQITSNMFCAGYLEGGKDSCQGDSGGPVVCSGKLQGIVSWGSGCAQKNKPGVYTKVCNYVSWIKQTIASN
Procedure: The purified polypeptide of the present invention was dissolved in 100 μl of distilled water, and the solution was serially diluted with a 0.1% BSA/0.2M triethanolamine-HCl buffer (pH 7.8) for use in the activity measurement. Measurement of the trypsin-inhibiting activity in the thus prepared test sample was carried out in accordance with the Kassell's method (Kassell, B. et al., Methods in Enzymology, vol.19, pp.844-852, 1970) using a synthetic substrate S-2444 (Daiichi Pure Chemicals Co., Ltd.).
Bovine trypsin (Type XIII, Sigma Chemical Co.) was dissolved in 0.001M HCl to a final concentration of 13,600 BAEEU/ml and the solution was further diluted with 0.1% BSA/0.2M triethanolamine-HCl buffer (pH 7.8) to prepare 1.2 BAEEU/ml of trypsin solution. Separately from this, 2 mM solution of the synthetic substrate S-2444 was prepared by dissolving it in distilled water. Next, 100 μl of the test sample was mixed with 100 μl of the trypsin solution. After incubating statically at 37° C. for 10 minutes, 50 μl of the S-2444 solution was added to start the reaction. The reaction was carried out at 37° C. for 15 minutes and then stopped by adding 50 μl of 50% acetic acid solution to the reaction mixture. Thereafter, absorbance at a wavelength of 405 nm was measured using a spectrophotometer. In this instance, in order to eliminate absorbancy of various contents in the reaction mixture other than the reaction product, a blank solution was prepared by mixing 100 μl of the bovine trypsin solution with 50 μl of 50% acetic acid and then with 100 μl of each test sample and 50 μl of the S-2444 solution.

[3] = biological target: T3, human trypsin (Homo sapiens, UniProt P07477); test: Human trypsin-inhibiting activity (synthetic substrate S-2444); assay type: biochemical; settings: purified polypeptide, various concentration levels
T3 construct: purchased Calbiochem
Procedure: The purified polypeptide of the present invention was dissolved in 100 μl of distilled water. Concentration of polypeptide in the thus prepared solution was determined based on its bovine trypsin-inhibiting activity measured in accordance with the above procedure (1) using UTI (Mochida Pharmaceutical Co., Ltd.; cf. H. Ohnishi et al., Nippon Yakurigaku Zasshi, vol.85, pp.1-6, 1985) as a standard. The polypeptide solution was then diluted to various concentration levels with 0.03% BSA/0.2M triethanolamine-HCl buffer (pH 7.8) for use in the activity measurement. Separately from this, human trypsin (Calbiochem) was dissolved in 1 mM HCl to a concentration of 1,000 SU/ml and the solution was further diluted with the 0.03% BSA/0.2M triethanolamine-HCl buffer (pH 7.8) to prepare a 1.25 SU/ml solution of human trypsin. Thereafter, human trypsin-inhibiting activity was measured in the same manner as described in the above procedure (1) using the aforementioned synthetic substrate S-2444. Separately from this, polypeptide AN68 (sequence described in Example 17(3)) was diluted to various concentration levels. Thereafter, human trypsin-inhibiting activity was measured in the same manner as described in the above procedure (1) and compared with the trypsin-inhibiting activity of the novel polypeptide of the present invention.

[4] = biological target: activated blood coagulation factor X (FXa) (Homo sapiens, UniProt P00742); settings: background statement; cited from earlier work
activated blood coagulation factor X (FXa), sequence (P00742 235-488 limits assumed): as the sequence (P00742 235-488 limits assumed) above
activated blood coagulation factor X (FXa), sequence (P00742 41-179 partner limits assumed): as the sequence (P00742 41-179 partner limits assumed) above

## Q19R: formula 1 sequence with Arg for position 15 Gln; amino acids 1-68 of SEQ. I.D. NO. 6; plasmid pM735 (AACNLPIVRGPCRAFIRLWAFDAVKGKCVLFPYGGCQGNGNKFYSEK)
[1]
  FXa-inhibiting activity, times higher than that of polypeptide AN68: about six
[2]
  bovine trypsin inhibition: can inhibit bovine trypsin in a concentration-dependent manner
[3]
  human trypsin inhibition: can inhibit human trypsin in a concentration-dependent manner

## Q19K: formula 1 sequence with Lys for position 15 Gln; amino acids 1-70 of SEQ. I.D. NO. 4; plasmid pM576 (DDAACNLPIVRGPCRAFIKLWAFDAVKGKCVLFPYGGCQGNGNKFYSEK)
[1]
  FXa-inhibiting activity, times higher than that of polypeptide TN70: about five
[2]
  bovine trypsin inhibition: can inhibit bovine trypsin in a concentration-dependent manner
[3]
  human trypsin inhibition: can inhibit human trypsin in a concentration-dependent manner

## R11E/Y46E: formula 1 sequence with Glu for position 7 Arg and Glu for position 42 Tyr; SEQ. I.D. No. 10; plasmid pM726B (AACNLPIVEGPCRAFIQLWAFDAVKGKCVLFPYGGCQGNGNKFESEK)
[1]
  FXa-inhibiting activity, times higher than that of polypeptide AN68: about three
[2]
  bovine trypsin inhibition: can inhibit bovine trypsin in a concentration-dependent manner
[3]
  human trypsin inhibition: can inhibit human trypsin in a concentration-dependent manner

## Y46E-AN: formula 1 sequence with Glu for position 42 Tyr; amino acids 1-68 of SEQ. I.D. NO. 12; plasmid pM575C (MKQSTIALALLPLLFTPVTKA)
[2]
  bovine trypsin inhibition: can inhibit bovine trypsin in a concentration-dependent manner
[3]
  human trypsin inhibition: can inhibit human trypsin in a concentration-dependent manner

## Y46E: formula 1 sequence with Glu for position 42 Tyr; amino acids 1-70 of SEQ. I.D. NO. 2; from plasmid pM575B (TVAACNLPIVRGPCRAFIQLWAFDAVKGKCVLFPYGGCQGNGNKFESEK)
[1]
  FXa-inhibiting activity, times higher than that of polypeptide TN70: about seven
[2]
  bovine trypsin inhibition: can inhibit bovine trypsin in a concentration-dependent manner
[3]
  human trypsin inhibition: can inhibit human trypsin in a concentration-dependent manner

## Q19K-AN: formula 1 sequence with Lys for position 15 Gln; amino acids 1-68 of SEQ. I.D. NO. 14; plasmid pM576B (AACNLPIVRGPCRAFIKLWAFDAVKGKCVLFPYGGCQGNGNKFYSEK)
[2]
  bovine trypsin inhibition: can inhibit bovine trypsin in a concentration-dependent manner
[3]
  human trypsin inhibition: can inhibit human trypsin in a concentration-dependent manner

## polypeptide of formula 1: unsubstituted parent polypeptide whose sequence coincides with a part of UTI or Bikunins (HI-30) (CNLPIVRGPCRAFIQLWAFDAVKGKCVLFPYGGCQGNGNKFYSEKECREYC) [reference compound]
[4]
  FXa-inhibiting activity: high FXa-inhibiting activity

## Q19K/Y46E: formula 1 sequence with Lys for position 15 Gln and Glu for position 42 Tyr; SEQ. I.D. NO. 8; plasmid pM736 (AACNLPIVRGPCRAFIKLWAFDAVKGKCVLFPYGGCQGNGNKFESEK)
[1]
  FXa-inhibiting activity, times higher than that of polypeptide AN68: about ten
[2]
  bovine trypsin inhibition: can inhibit bovine trypsin in a concentration-dependent manner
[3]
  human trypsin inhibition: can inhibit human trypsin in a concentration-dependent manner

## Q19R/Y46E: formula 1 sequence with Arg for position 15 Gln and Glu for position 42 Tyr; SEQ. I.D. NO. 16; plasmid pM737B (AACNLPIVRGPCRAFIRLWAFDAVKGKCVLFPYGGCQGNGNKFESEK)
[1]
  FXa-inhibiting activity, times higher than that of polypeptide AN68: about ten
[2]
  bovine trypsin inhibition: can inhibit bovine trypsin in a concentration-dependent manner
[3]
  human trypsin inhibition: can inhibit human trypsin in a concentration-dependent manner

B1: Q19R/Y46D: formula 1 sequence with Arg for position 15 Gln and Asp for position 42 Tyr; SEQ. I.D. NO. 36; plasmid pM744 (protein)
chain: AACNLPIVRGPCRAFIRLWAFDAVKGKCVLFPYGGCQGNGNKFDSEKECREYCGVPGDGDEELLRFSN
[1]
  FXa-inhibiting activity, times higher than that of polypeptide AN68: about 18 times
[2]
  bovine trypsin inhibition: can inhibit bovine trypsin in a concentration-dependent manner
[3]
  human trypsin inhibition: can inhibit human trypsin in a concentration-dependent manner

B2: Q19K/Y46D: formula 1 sequence with Lys for position 15 Gln and Asp for position 42 Tyr; SEQ. I.D. NO. 35; plasmid pM727 (protein)
chain: B1 chain with R17K
[1]
  FXa-inhibiting activity, times higher than that of polypeptide AN68: about twenty
[2]
  bovine trypsin inhibition: can inhibit bovine trypsin in a concentration-dependent manner
[3]
  human trypsin inhibition: can inhibit human trypsin in a concentration-dependent manner
